Experimental data as given in article PMC6927325.

Experiments:
[1] = target: fluorescein-labeled ALK peptide G1473…1483; assay: fluorescence polarisation; fluorescein-labeled peptides and GST-PTBi in solution
[2] = target: fluorescein-labeled ALK peptide F1577…1587; assay: as above

Kd [1]: 700 nM
Kd [2]: 500 nM
Substance: GST-fused NUMB PTB domain with the exon 3 insert (11 aa) (domain or fragment)
